Measurements from article PMC9638925 (Nucleic Acids Research, 2022).

Target: T1, USP15 (275–981) (human, UniProt Q9Y4E8 275-981)
T1 sequence: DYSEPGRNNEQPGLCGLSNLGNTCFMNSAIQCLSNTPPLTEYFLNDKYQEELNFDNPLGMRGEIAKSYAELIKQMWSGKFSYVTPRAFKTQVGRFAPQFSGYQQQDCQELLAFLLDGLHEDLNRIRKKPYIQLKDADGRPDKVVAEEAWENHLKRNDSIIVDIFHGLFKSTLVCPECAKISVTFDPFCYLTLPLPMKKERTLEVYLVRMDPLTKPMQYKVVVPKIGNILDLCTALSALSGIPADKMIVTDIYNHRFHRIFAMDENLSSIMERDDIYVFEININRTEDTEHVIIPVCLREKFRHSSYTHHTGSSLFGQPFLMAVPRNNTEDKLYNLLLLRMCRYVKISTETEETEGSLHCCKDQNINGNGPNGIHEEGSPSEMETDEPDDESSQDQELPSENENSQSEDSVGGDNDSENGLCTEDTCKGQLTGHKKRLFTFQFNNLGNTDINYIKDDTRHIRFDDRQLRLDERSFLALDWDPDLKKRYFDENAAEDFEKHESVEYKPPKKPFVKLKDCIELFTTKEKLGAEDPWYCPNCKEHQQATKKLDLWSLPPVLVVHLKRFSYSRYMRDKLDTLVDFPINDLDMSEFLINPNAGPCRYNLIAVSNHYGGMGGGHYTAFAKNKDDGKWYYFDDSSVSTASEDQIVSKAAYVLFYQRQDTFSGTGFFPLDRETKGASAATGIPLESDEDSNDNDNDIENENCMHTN
Test: pull-down

B1: GST–cGAS (161–522) (domain or fragment)
chain: GASKLRAVLEKLKLSRDDISTAAGMVKGVVDHLLLRLKCDSAFRGVGLLNTGSYYEHVKISAPNEFDVMFKLEVPRIQLEEYSNTRAYYFVKFKRNPKENPLSQFLEGEILSASKMLSKFRKIIKEEINDIKDTDVIMKRKRGGSPAVTLLISEKISVDITLALESKSSWPASTQEGLRIQNWLSAKVRKQLRLKPFYLVPKHAKEGNGFQEETWRLSFSHIEKEILNNHGKSKTCCENKEEKCCRKDCLKLMKYLLEQLKERFKDKKHLDKFSSYHVKTAFFHVCTQNPQDSQWDRKDLGLCFDNCVTYFLQCLRTEKLENYFIPEFNLFSSNLIDKRSKEFLTKQIEYERNNEFPVFDEF
binding result: binds
